Two molecules from US20230331848A1 (BIOSION, published 2023) can be followed below.

Broadly, the IC50 is the concentration needed to halve the response being measured. The EC50 is the midpoint of the concentration-response curve.

The target in test [1] is T1, in house made human PD-1-Fc protein (human, biotin-labeled (sites not given)).
T1 construct: also called biotin-labeled human PD-1-Fc
Description: competitive ELISA: antibody pre-mixed with biotin-labeled human PD-1-Fc, added to coated human PD-L1-Fc (blocked ligand); unit from the axis 'Con of mAb, nM.'. The procedure: The activities of the anti-PD1 antibodies of the disclosure to block PD-L1-PD1 binding were measured in a competitive ELISA.
Briefly, 100 μl human PD-L1-Fc protein (prepared in-house with SEQ ID NO: 28) at 2 μg/mL in carbonate/bicarbonate buffer (pH 9.6) was coated on 96-well micro plates overnight at 4° C., Plates were washed with wash buffer (PBS+0.05% w/v Tween-20, PBST), and blocked with 5% w/v non-fatty milk in PBST for 2 hours at 37° C. […] After incubation at 37° C. for 40 minutes, plates were washed using wash buffer. […] Plates were washed again using wash buffer. Finally, TMB was added and the reaction was stopped using 1M H₂SO₄. The absorbance was read on a microplate reader using dual wavelength mode with 450 nm for TMB and 630 nm as the reference wavelength, then the OD (450-630) values were plotted against antibody concentrations. Data was analyzed using Graphpad Prism software and IC₅₀ values were reported.
For orientation: In an ELISA, binding on a coated surface is turned into a signal by an enzyme label.

Test [2] addresses T2, human PD-1 expressed on GS-J2/PD-1 cells (Genscript) (human, UniProt Q15116 25-288).
T2 construct: whole, on cells; also called cell-surface human PD-1
Briefly: flow cytometry on GS-J2/PD-1 cells. The procedure:
In specific, the 293F-mouse PD-1 cells and GS-J2/PD-1 cells were respectively harvested from cell culture flasks, washed twice and re-suspended in PBS containing 2% v/v Fetal Bovine Serum (FACS buffer). Then, 2×10⁵ cells per well were incubated in 96 well-plates with 100 μl of the anti-PD1 antibodies or controls at various concentrations for 40 minutes on ice. […] Following an incubation of 40 minutes at 4° C. in dark, cells were washed three times and re-suspended in FACS buffer. Fluorescence was measured using a Becton Dickinson FACS Canto II-HTS equipment and plotted against antibody concentrations. Data was analyzed using GraphPad Prism software and EC₅₀ values were reported.
For the cell-based binding FACS, R-Phycoerythrin AffiniPure Goat Anti-human IgG Fcγ fragment specific (Cat#:109-115-098, Jackson ImmunoResearch) was used for the humanized antibodies, with 1:1000 dilution in FACS buffer, 100 μl/well.
Background: In flow cytometry, cells or beads pass a laser one at a time.

Test [3] addresses T3, human PD-1-his protein prepared in-house (human, UniProt Q15116 25-167, biotin-labeled (sites not given)).
T3 construct: also called biotin labeled human PD-1-his
Description: capture ELISA, antibody captured, biotin human PD-1-his detected. The procedure:
Briefly, 96-well micro plates were coated with 100 μl 2 μg/ml AffiniPure Goat Anti-Mouse IgG F(ab′)₂ fragment specific (Cat#:115-005-072, Jackson lmmunoResearch) or Goat-anti-human IgG (Cat#:109-005-097, Jackson ImmunoResearch, for the positive control and negative control) in PBS overnight at 4° C. Plates were washed once with wash buffer (PBST, PBS+0.05% Tween-20) and then blocked with 200 μl/well blocking buffer (5% w/v non-fatty milk in PBST) for 2 hours at 37° C. […] After a final wash, plates were incubated with 100 μl/well TMB (Cat#:TMB-S-002, Innoreagents) at room temperature.
For the capture ELISA, 96-well plates were coated with 100 μl 2 μg/ml AffiniPure Goat Anti-Human IgG, Fcγ fragment specific (Cat#:109-005-098, Jackson Immunoresearch) instead of AffiniPure goat-anti-mouse IgG F(ab′)₂ fragment specific.

In test [4] the target is T3, human PD-1-his protein prepared in-house. Description: competitive ELISA: biotin human PD-1-his + antibody on coated Pembrolizumab (competitor). The procedure:
ELISA plates were washed once with wash buffer (PBST, PBS+0.05% Tween-20) and then blocked with 200 μl/well blocking buffer (5% w/v non-fatty milk in PBST) for 2 hours at 37° C. […] After incubation at 37° C. for 40 minutes, plates were washed using wash buffer, added and incubated with 100 μl/well Peroxidase Streptavidin for 40 minutes at 37° C. Plates were washed again using wash buffer. Finally, TMB was added and the reaction was stopped using 1M H₂SO₄. The absorbance was read on a microplate reader using dual wavelength mode with 450 nm for TMB and 630 nm as the reference wavelength, and the OD (450-630) values were plotted against antibody concentrations. Data was analyzed using Graphpad Prism software and IC₅₀ values were reported.

The target of test [5] is T2, human PD-1 expressed on GS-J2/PD-1 …. Description: cell-based or functional assay.

B1: mouse anti-PD-1 monoclonal antibody E1G5D1H1 (antibody, V domains shown)
VH: EVQLVESGGGLVKPGGSLKLSCAASGFTFSDFYMYWVRQTPEKRLEWVATISNSGTQTYYLDSVKGRFTISRDNAKNNLYLQMSSLKSEDTAMYYCARDYYRYDSWYFDVWGAGTTVTVSS
VL: DIVLTQSPASLAVSQGQRATISCRASESVDFYGTSLMQWFQLKPGQPPKLLIYAASNVESGVPARFSGSGSGTNFSLNIHPVEEDDIAMYFCQQSRKVPWTFGGGTNLEIK
notes: Hybridoma-derived mouse mAb; also called EIG5D1H1; E1G5DIH1
Consider B1, for which the IC50 in test [1] was determined as 0.434 nM.

B2: mouse anti-PD-1 monoclonal antibody E1A9C8A7 (antibody, V domains shown)
VH: QVQLQQSGAEVVRPGVSVRISCKGSGYTFSDYVMHWMKQSHGESLEWIGVISTYHIPAVYNQKFKGKATMTVDKSSSTVYLELARLTSEDSAIYYCAREVYGDSYYFDVWGAGTTVTVSS
VL: DVLMTQIPLSLPVSLGDQVSISCRSSQSIVHSNGNTYLEWYLQKPGQSPKLLIYKVSNRFSGVPDRFSGSGSGTDFTLKISRVEAEDLGVYYCFQGSHVPYTFGGGTKLEIK
notes: Hybridoma-derived mouse mAb purified on Protein A; also called Mouse E1A9C8A7
In the case of B2, the results for the half-maximal effective concentration (EC50) in test [2] and in test [3] were 0.44 nM and 0.14 nM, respectively. The IC50 in test [4] was 0.48 nM. In test [5], the “Cell-based functional assay (EC50, nM)” value was 6.62 nM.
